For the assay, the target named is IsdB point mutant P173A (IsdB^P173A) (Staphylococcus aureus, UniProt Q2FZF0 41-613, P173A). Put plainly: atomic force spectroscopy.

B1: methemoglobin (oxidized human hemoglobin A) (complex)
chain 1: not shown
chain 2: not shown
For the molecule B1, the koff (in general, the rate constant with which the complex falls apart) amounted to 0.0025 s⁻¹.

The record behind these values is paper PMC11805746 (Discover Nano, 2025).
